This test has as its target recombinant VEGF (UniProt P15692). Briefly: cell-based or functional assay.

Chain of recombinant VEGF (P15692 other isoform, or with tags, fused parts or gaps limits assumed): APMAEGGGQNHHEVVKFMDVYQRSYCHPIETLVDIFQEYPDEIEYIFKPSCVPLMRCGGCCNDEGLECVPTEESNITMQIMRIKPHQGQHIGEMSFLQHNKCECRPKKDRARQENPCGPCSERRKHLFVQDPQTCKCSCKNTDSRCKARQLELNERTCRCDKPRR

Take “soluble Fms-related tyrosine kinase-1 (sFLT-1) protein, human, secreted by rAAV.sFlt-1-transduced 293 cells (from UniProt P17948 27-450)”: the inhibition of VEGF-induced proliferation of HUVECs (MTT assay), 40 µL conditioned medium from rAAV.sFlt-1-transduced 293 cells worked out at 32%.

The record behind these values is patent US20130323302A1.
